Experimental data from doi:10.1101/2020.11.11.367672 (bioRxiv, 2020).
Each block holds one binder with its values, some of them ahead of it.

Assays:
Assay in all cases: pull-down
[1] = target: RPAP3 TPR1 domain (residues 133-255) (human, UniProt Q9H6T3 133-255)
Dicer 256-595 domain = target: T1, Dicer 256-595 domain (human, UniProt Q9UPY3 256-595)
T1 sequence: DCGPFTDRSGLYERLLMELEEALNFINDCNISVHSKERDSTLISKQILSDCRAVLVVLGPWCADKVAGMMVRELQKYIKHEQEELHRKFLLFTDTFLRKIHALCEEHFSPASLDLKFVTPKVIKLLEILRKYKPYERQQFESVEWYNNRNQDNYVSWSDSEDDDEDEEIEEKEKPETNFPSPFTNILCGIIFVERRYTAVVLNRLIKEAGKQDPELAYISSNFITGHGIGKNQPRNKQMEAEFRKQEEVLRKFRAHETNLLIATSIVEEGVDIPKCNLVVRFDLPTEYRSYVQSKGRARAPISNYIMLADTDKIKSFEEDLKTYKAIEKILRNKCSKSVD

[2] = target: GST (glutathione-S-transferase)-tagged RPAP3 (human, UniProt Q9H6T3 1-665)
Sequence of GST (glutathione-S-transferase)-tagged RPAP3 (Q9H6T3 whole entry): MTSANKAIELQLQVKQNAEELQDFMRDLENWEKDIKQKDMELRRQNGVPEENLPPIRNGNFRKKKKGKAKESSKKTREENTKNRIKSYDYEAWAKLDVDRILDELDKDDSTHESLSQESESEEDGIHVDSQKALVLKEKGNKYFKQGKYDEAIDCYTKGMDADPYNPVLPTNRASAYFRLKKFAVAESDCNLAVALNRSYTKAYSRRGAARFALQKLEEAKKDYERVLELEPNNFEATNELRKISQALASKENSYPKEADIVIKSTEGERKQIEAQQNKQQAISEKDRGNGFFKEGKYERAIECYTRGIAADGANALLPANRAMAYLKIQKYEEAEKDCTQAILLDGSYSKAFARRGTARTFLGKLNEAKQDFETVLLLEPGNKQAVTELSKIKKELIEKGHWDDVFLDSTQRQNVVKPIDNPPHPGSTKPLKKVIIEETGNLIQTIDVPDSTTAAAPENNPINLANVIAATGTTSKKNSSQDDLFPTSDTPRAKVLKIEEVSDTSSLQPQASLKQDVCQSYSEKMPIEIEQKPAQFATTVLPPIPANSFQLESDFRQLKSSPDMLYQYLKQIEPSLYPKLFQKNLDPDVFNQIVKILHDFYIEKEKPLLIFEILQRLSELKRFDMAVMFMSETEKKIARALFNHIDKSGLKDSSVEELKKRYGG

Sequence of RPAP3 TPR1 domain (residues 133-255) (Q9H6T3 133-255): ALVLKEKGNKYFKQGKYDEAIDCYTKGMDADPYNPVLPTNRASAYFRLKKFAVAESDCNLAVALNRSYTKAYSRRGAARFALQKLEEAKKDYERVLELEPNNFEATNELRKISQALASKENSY

binding result [1]: binds
binding result (Dicer 256-595 domain): binds
B1: His6-tagged TRBP dsRBD3 (262-366) (domain or fragment)
chain: GCTWDSLRNSVGEKILSLRSCSLGSLGALGPACCRVLSELSEEQAFHVSYLDIEELSLSGLCQCLVELSTQPATVCHGSATTREAARGEAARRALQYLKIMAGSK

binding result [2]: binds
B2: His6-tagged TRBP protein (purified recombinant, GST pull-down) (natural protein)
chain: MSEEEQGSGTTTGCGLPSIEQMLAANPGKTPISLLQEYGTRIGKTPVYDLLKAEGQAHQPNFTFRVTVGDTSCTGQGPSKKAAKHKAAEVALKHLKGGSMLEPALEDSSSFSPLDSSLPEDIPVFTAAAAATPVPSVVLTRSPPMELQPPVSPQQSECNPVGALQELVVQKGWRLPEYTVTQESGPAHRKEFTMTCRVERFIEIGSGTSKKLAKRNAAAKMLLRVHTVPLDARDGNEVEPDDDHFSIGVGSRLDGLRNRGPGCTWDSLRNSVGEKILSLRSCSLGSLGALGPACCRVLSELSEEQAFHVSYLDIEELSLSGLCQCLVELSTQPATVCHGSATTREAARGEAARRALQYLKIMAGSK
